Measured values as given in patent US8349797 (dated 2013).
Like-named read-outs stand apart in the source and are kept apart here. Bridges are numbered along the chain shown (N, C = ends). [ ]: non-standard residue; d: D form. 1Nal = N[C@@H](Cc1cccc2ccccc12)C(=O)O; 2Nal = N[C@@H](Cc1ccc2ccccc2c1)C(=O)O; d2Nal = N[C@H](Cc1ccc2ccccc2c1)C(=O)O; Aib = CC(C)(N)C(=O)O; βAla = NCCC(=O)O

How the values were obtained:
Assay in all cases: competition
[1] = target: T1, hMC1-R (human, UniProt Q01726)
[2] = target: T2, hMC3-R (human, UniProt P41968)
T2 sequence (P41968 whole entry): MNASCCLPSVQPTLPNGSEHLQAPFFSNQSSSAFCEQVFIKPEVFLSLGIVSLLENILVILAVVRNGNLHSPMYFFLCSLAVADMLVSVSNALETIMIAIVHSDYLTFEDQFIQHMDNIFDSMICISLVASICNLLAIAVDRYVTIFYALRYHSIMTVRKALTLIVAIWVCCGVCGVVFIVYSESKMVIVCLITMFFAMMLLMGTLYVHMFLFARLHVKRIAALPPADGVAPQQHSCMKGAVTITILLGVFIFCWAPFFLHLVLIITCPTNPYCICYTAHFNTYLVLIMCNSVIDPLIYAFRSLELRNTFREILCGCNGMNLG

[3] = target: T3, hMC5-R (human, UniProt P33032)
T3 sequence (P33032 whole entry): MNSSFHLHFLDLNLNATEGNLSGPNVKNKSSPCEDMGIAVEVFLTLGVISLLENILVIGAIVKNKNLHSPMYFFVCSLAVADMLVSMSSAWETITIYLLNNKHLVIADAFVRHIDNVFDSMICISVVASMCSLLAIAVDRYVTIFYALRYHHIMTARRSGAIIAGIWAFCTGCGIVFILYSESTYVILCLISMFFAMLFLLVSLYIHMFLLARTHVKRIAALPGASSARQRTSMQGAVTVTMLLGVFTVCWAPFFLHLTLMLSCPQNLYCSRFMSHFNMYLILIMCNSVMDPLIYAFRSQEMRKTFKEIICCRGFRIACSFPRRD

[4] = target: T4, hMC4-R (human, UniProt P32245)
T4 sequence (P32245 whole entry): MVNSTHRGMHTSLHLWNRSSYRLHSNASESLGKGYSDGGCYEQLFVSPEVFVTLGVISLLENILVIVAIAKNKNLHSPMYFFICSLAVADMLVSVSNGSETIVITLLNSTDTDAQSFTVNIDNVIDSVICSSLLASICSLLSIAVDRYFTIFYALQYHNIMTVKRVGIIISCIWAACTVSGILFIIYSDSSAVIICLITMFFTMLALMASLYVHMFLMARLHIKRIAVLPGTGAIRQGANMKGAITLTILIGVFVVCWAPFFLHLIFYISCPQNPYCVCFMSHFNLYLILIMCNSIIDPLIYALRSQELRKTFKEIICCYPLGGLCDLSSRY

[5] = target: T4, hMC4-R; remark: listed apart in the source
[6] = target: T1, hMC1-R; remark: listed apart in the source
[7] = target: T2, hMC3-R; remark: listed apart in the source
[8] = target: T3, hMC5-R; remark: listed apart in the source

T1 sequence (Q01726 whole entry): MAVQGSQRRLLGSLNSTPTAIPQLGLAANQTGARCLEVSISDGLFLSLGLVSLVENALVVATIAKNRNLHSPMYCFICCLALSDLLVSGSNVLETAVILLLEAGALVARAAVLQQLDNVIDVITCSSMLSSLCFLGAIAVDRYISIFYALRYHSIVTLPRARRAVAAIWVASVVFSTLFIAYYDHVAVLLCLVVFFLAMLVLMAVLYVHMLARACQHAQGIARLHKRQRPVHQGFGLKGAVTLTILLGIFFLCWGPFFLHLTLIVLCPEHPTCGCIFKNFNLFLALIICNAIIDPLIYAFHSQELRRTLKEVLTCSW

Binder	Ki [1]	Ki [2]	Ki [3]	Ki [4]	Ki [5]	Ki [6]	Ki [7]	Ki [8]
Ac-CEH[d2Nal]R[2Nal]ACPPKD-NH2 (disulfide 1-8; SMILES CC(=O)N[C@H]1CSSC[C@@H](C(=O)N2CCC[C@H]2C(=O)N2CCC[C@H]2C(=O)N[C@@H](CCCCN)C(=O)N[C@@H](CC(=O)O)C(N)=O)NC(=O)[C@H](C)NC(=O)[C@H](Cc2ccc3ccccc3c2)NC(=O)[C@H](CCCNC(=N)N)NC(=O)[C@@H](Cc2ccc3ccccc3c2)NC(=O)[C@H](Cc2c[nH]cn2)NC(=O)[C@H](CCC(=O)O)NC1=O) [Table 2A compound 14]	87.8 nM	9.08 nM	359 nM	1.2 nM				
Ac-CEH[d2Nal]R[2Nal][Aib]CPPKD-NH2 (disulfide 1-8; SMILES CC(=O)N[C@H]1CSSC[C@@H](C(=O)N2CCC[C@H]2C(=O)N2CCC[C@H]2C(=O)N[C@@H](CCCCN)C(=O)N[C@@H](CC(=O)O)C(N)=O)NC(=O)C(C)(C)NC(=O)[C@H](Cc2ccc3ccccc3c2)NC(=O)[C@H](CCCNC(=N)N)NC(=O)[C@@H](Cc2ccc3ccccc3c2)NC(=O)[C@H](Cc2c[nH]cn2)NC(=O)[C@H](CCC(=O)O)NC1=O) [Table 2B compound 2]					5.87 nM	1820 nM	306 nM	979 nM
Ac-CEH[d2Nal]R[2Nal][βAla]CPPKD-NH2 (disulfide 1-8; SMILES CC(=O)N[C@H]1CSSC[C@@H](C(=O)N2CCC[C@H]2C(=O)N2CCC[C@H]2C(=O)N[C@@H](CCCCN)C(=O)N[C@@H](CC(=O)O)C(N)=O)NC(=O)CCNC(=O)[C@H](Cc2ccc3ccccc3c2)NC(=O)[C@H](CCCNC(=N)N)NC(=O)[C@@H](Cc2ccc3ccccc3c2)NC(=O)[C@H](Cc2c[nH]cn2)NC(=O)[C@H](CCC(=O)O)NC1=O) [Table 2B compound 1]					10.7 nM	2060 nM	113 nM	239 nM
Ac-CEH[d2Nal]R[1Nal]ACPPKD-NH2 (disulfide 1-8; SMILES CC(=O)N[C@H]1CSSC[C@@H](C(=O)N2CCC[C@H]2C(=O)N2CCC[C@H]2C(=O)N[C@@H](CCCCN)C(=O)N[C@@H](CC(=O)O)C(N)=O)NC(=O)[C@H](C)NC(=O)[C@H](Cc2cccc3ccccc23)NC(=O)[C@H](CCCNC(=N)N)NC(=O)[C@@H](Cc2ccc3ccccc3c2)NC(=O)[C@H](Cc2c[nH]cn2)NC(=O)[C@H](CCC(=O)O)NC1=O) [Table 2A compound 15]	124 nM	17.8 nM	348 nM	1.11 nM				
